Data as given in patent US20100273722A1, “MODIFIED MINIATURE PROTEINS” (Yale University, priority 2007, published 2010).
Numbering of substitutions follows the chain as printed. One block for each binder: values may come before it.

Tests used:
[1] = molecular target: human Fyn (residues 81-142) SH3 domain-GST fusion protein (human), P06241; test: fluorescence polarization, 50 nM labeled peptide, SH3-GST titrated
[2] = molecular target: T1, human Lck (residues 62-128) SH3 domain-GST fusion (human), P06239; test: as above
T1 chain: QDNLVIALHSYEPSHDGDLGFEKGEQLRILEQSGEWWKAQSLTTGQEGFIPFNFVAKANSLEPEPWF

[3] = molecular target: human Lyn (residues 62-122) SH3 domain-GST fusion protein (human), P07948; test: as above
[4] = molecular target: Down-regulated Hck kinase (containing an N-terminal His6 tag); test: cell-based or functional assay

Chain of human Fyn (residues 81-142) SH3 domain-GST fusion protein (human), P06241 (P06241 81-142): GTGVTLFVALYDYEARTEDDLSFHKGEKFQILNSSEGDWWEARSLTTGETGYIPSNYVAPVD
Chain of human Lyn (residues 62-122) SH3 domain-GST fusion protein (human), P07948 (P07948 62-122): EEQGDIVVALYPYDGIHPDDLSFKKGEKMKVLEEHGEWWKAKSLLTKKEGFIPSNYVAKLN

- Kd [1]: 1400 nM
- Kd [2]: > 20 µM
- Kd [3]: 2000 nM
B1: ^Flu1, fluorescently labeled analog of Peptide 1 (peptide)
peptide: CGGAPPLPPRNRPR
modifications: not checked

- Activity (nmol · sec^-1), activator at 50 micromolar (nmol · sec^-1) [4]: 139
- Fold-Activation, activator at 50 micromolar [4]: 13 fold
- Kact (concentration of activator at half-maximal activation) [4]: 48 µM
B2: PP2 (designed binder)
chain: APPLPPRNRGDDAPVEDLIRFYDNLQQYLNVVTRHRY

- Activity (nmol · sec^-1), activator at 50 micromolar (nmol · sec^-1) [4]: 83.9
- Fold-Activation, activator at 50 micromolar [4]: 7 fold
- Kact (concentration of activator at half-maximal activation) [4]: 48 µM
B3: PP3 (designed binder)
chain: B2 chain with G10P, D11R

- Activity (nmol · sec^-1), activator at 50 micromolar (nmol · sec^-1) [4]: 83.6
- Fold-Activation, activator at 50 micromolar [4]: 8 fold
B4: PP1 (designed binder)
chain: B2 chain with R9P
